Laboratory results: patent US20160160255A1, “Methods and Materials for Producing 6-Carbon Monomers” (INVISTA North America S.á.r.l., priority 2014, published 2016)

Assay: β-ketothiolase activity, 4-hydroxybutyryl-CoA and acetyl-CoA to 3-oxo-6-hydroxyhexanoyl-CoA
Assay type: biochemical
Conditions: 5 μM enzyme and ChnC lactonase, 10 mM γ-butyrolactone, 5 mM acetyl-CoA, pH 6.8, 30° C., 3 hour
Protocol: A nucleotide sequence encoding a N-terminal His-tag was added to the gene from Clostridium aminobutyricum encoding the β-ketothiolase activity of SEQ ID NO: 14 (see FIG. 6) such that a N-terminal HIS tagged enzyme could be produced. The resulting modified gene was cloned into a pET15b expression vector under control of the T7 promoter and the expression vector was transformed into a BL21[DE3] E. coli host. The resulting recombinant E. coli strain was cultivated at 37° C. in a 1 L shake flask culture containing 350 mL LB media and ampicillin antibiotic selection pressure, with shaking at 230 rpm. Each culture was induced overnight at 25° C. using 1 mM IPTG.
The pellet from each induced shake flask culture was harvested via centrifugation. Each pellet was resuspended and lysed via sonication. The cell debris was separated from the supernatant via centrifugation. The enzyme was purified from the supernatant using Ni-affinity chromatography, buffer exchanged and concentrated into 50 mM potassium phosphate buffer (pH=6.8) via ultrafiltration.
Enzyme activity assays converting 4-hydroxybutyryl-CoA and acetyl-CoA to 3-oxo-6-hydroxyhexanoyl-CoA were performed in triplicate in a buffer composed of a final concentration of 50 mM potassium phosphate buffer (pH=6.8), 75 μM ZnCl2, 10 mM γ-butyrolactone and 5 mM acetyl-CoA. […] The formation of 3-oxo-6-hydroxyhexanoyl-CoA was determined via LC-MS.

B1: SEQ ID NO 14: Clostridium aminobutyricum CoA-transferase, GenBank Accession No. CAB60036.2, with β-ketothiolase activity, N-terminal His-tagged (protein, listed as Clostridium aminobutyricum)
chain: MDWKKIYEDRTCTADEAVKSIKSGDRVLFAHCVAEPPVLVEAMVANAAAYKNVTVSHMVTLGKGEYSKPEYKENFTFEGWFTSPSTRGSIAEGHGQFVPVFFHEVPSLIRKDIFHVDVFMVMVSPPDHNGFCCVGVSSDYTMQAIKSAKIVLAEVNDQVPVVYGDTFVHVSEIDKFVETSHPLPEIGLPKIGEVEAAIGKHCASLIEDGSTLQLGIGAIPDAVLSQLKDKKHLGIHSEMISDGVVDLYEAGVIDCSQKSIDKGKMAITFLMGTKRLYDFAANNPKVELKPVDYINHPSVVAQCSKMVCINACLQVDFMGQIVSDSIGTKQFSGVGGQVDFVRGASMSIDGKGKAIIAMPSVAKKKDGSMISKIVPFIDHGAAVTTSRNDADYVVTEYGIAEMKGKSLQDRARALINIAHPDFKDELKAEFEKRFNAAF
modifications: N-terminal His tag
acceptance of 4-hydroxybutyryl-CoA and acetyl-CoA as substrates, formation of 3-oxo-6-hydroxyhexanoyl-CoA (LC-MS): accepted 4-hydroxybutyryl-CoA and acetyl-CoA as substrates
